Where two headings read alike, the source gives them in different places.

What all share (settings): remark: other sources report otherwise
Assay [1] deals with T1, sCoV2-RBD (Fc-tagged RBD of SARS-CoV-2 S protein) (SARS-CoV-2; human), P0DTC2.
In assay [2] the target is trimeric prefusion S protein of SARS-CoV-2 (SARS-CoV-2), P0DTC2.
Assay [3] addresses T1, sCoV2-RBD (Fc-tagged RBD of SARS-CoV-2 …). The experiment in a line: ELISA titration on coated sCoV2-RBD.
For assay [4] the target is unchanged. The experiment in a line: BLI (Octet) blocking of ACE2 binding to captured sCoV2-RBD.

B1: CoV2-16 (antibody, V domains shown)
VH: QVQLHQWGAGLLKPSETLSRTCAVYGGSFSGYYWTWIRQAPGKGLEWIGEINHGGSTRYNPSLESRVSISVDTSKKQFSLELRSVTAADTAIYYCARGYDTNWYGDGYNWFDPWDRGTLVTVSS
VL: QAVVTQPPSVSGTPGQRVTISCSGSSSSIGSNTVHWYQHLPGTAPKLLMYNNNERPSGVPARFSGSKSGTSASLVITGLQADDEAEYYCQSYDTGLSGHVFGSGTELTVL
As to B1, the half-maximal effective concentration (EC50) in assay [1] and in assay [3] was 7.77 nM in each case. In assay [2], the Kd was found to be 5.35 nM. The same molecule came in with a half-inhibitory concentration (IC50) in assay [4] of 6.9 µg/mL.

B2: CoV2-09 (antibody, V domains shown)
VH: B1 VH
VL: QSALTQDPSVSVALGQTVRITCQGDSLRGSFASWYRQKPGQAPVLVIFGINNRPSGVPDRFSGSSSGNTASLTITGAQAEDEADYYCNSRESNSNRILFGGGTKVTVL
As for B2, in assay [2], the Kd turned out to be 0.94 nM. The IC50 in assay [4] worked out at 3.54 µg/mL.

Usually EC50 stands for the concentration at which the effect is half-maximal. A lower EC50 goes with an effect from little substance. By Kd is commonly meant the free concentration of one partner at which half of the binding sites on the other are occupied at equilibrium, for simple one-to-one binding. The IC50 is the midpoint of a concentration-inhibition curve. High values mean lower potency, low ones higher potency.
